Assay results: the supplement of paper PMC10201428
± gives the standard deviation of the averaged measurements.

What was measured:
[1] = system: VchCAST RNA-guided transposition machinery (E. coli BL21(DE3) host, lacZ target); experiment: relative integration efficiency (T-RL orientation) vs wild-type transposon end (log2 (normalized fold change)); transposon end mutated: right end (5 bp flank + 75 bp right end); higher = more efficient transposition
How it was run: (§1)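 Relative integration efficiency is a fold change of output over input barcode abundance, normalised to reference barcodes and log-transformed. Input plasmids and genomic integration junctions were PCR-amplified and Illumina-sequenced from E. coli BL21(DE3) co-transformed with a T7-driven effector plasmid and pUC57 donor pools of 1549 left-end or 1849 right-end transposon variants. Plating was done with 0.1 mM IPTG at 37°C for 18 h, with two biological output replicates and four reference barcodes.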

[2] = system: VchCAST RNA-guided transposition machinery (E. coli BL21(DE3) host, lacZ target); experiment: relative integration efficiency (T-LR orientation) vs wild-type transposon end (log2 (normalized fold change)); transposon end mutated: right end (5 bp flank + 75 bp right end); higher = more efficient transposition
How it was run: as §1

Row | Sequence | relative integration efficiency (log2) [1] | relative integration efficiency (log2) [2]
1 | ACATTTGTTGATACACCCATAAATTGATAATTACAACCATATATTGATATCTCTCACAACCATATATTGATATCTCCTCTGATCATAGTCAGACCAACATTGCTACGACCCGTATTCGCACCGACAC | -0.949 ± 0.26 | 0.0245 ± 0.11
2 | ACATTTGTTGATACACCCATAAATTGATAATTACAACCATATATTGATATCTCTCACACCCATAAATTGATAATTACTCTGATCATAGTCAGACCAACATTGCTACGACCCGTATTCGCACCGACAC | -0.753 ± 0.22 | 0.157 ± 0.34
3 | ACATTTGTTGATACACCCATAAATTGATAATTACAACCATATATTGATATCTCTCACACCCATAAATTGATATTGCCTCTGATCATAGTCAGACCAACATTGCTACGACCCGTATTCGCACCGACAC | -0.676 ± 0.13 | -0.339 ± 0.29
4 | ACATTTGTTGATACACCCATAAATTGATAATTACAACCATATATTGATATCTCTCAGTGGGTATTTAACTATAACGCTCTGATCATAGTCAGACCAACATTGCTACGACCCGTATTCGCACCGACAC | -1.17 ± 0.28 | 2.39 ± 0.18
5 | ACATTTGTTGATACACCCATAAATTGATAATTACACCCATAAATTGATAATTATCACAACCATAAAATGATAATTACTCTGATCATAGTCAGACCAACATTGCTACGACCCGTATTCGCACCGACAC | -0.366 ± 0.2 | -0.749 ± 0.39
6 | ACATTTGTTGATACACCCATAAATTGATAATTACACCCATAAATTGATAATTATCACAACCATAAAGTGATATTTACTCTGATCATAGTCAGACCAACATTGCTACGACCCGTATTCGCACCGACAC | -0.445 ± 0.034 | -0.01 ± 0.22
7 | ACATTTGTTGATACACCCATAAATTGATAATTACACCCATAAATTGATAATTATCACAACCATAAGTTGATATTTTCTCTGATCATAGTCAGACCAACATTGCTACGACCCGTATTCGCACCGACAC | -0.361 ± 0.17 | -0.206 ± 0.42
8 | ACATTTGTTGATACACCCATAAATTGATAATTACACCCATAAATTGATAATTATCACAACCATATATTGATATCTCCTCTGATCATAGTCAGACCAACATTGCTACGACCCGTATTCGCACCGACAC | -0.596 ± 0.21 | -0.271 ± 0.04
9 | ACATTTGTTGATACACCCATAAATTGATAATTACACCCATAAATTGATAATTATCACACCCATAAATTGATAATTACTCTGATCATAGTCAGACCAACATTGCTACGACCCGTATTCGCACCGACAC | -0.6 ± 0.15 | -0.257 ± 0.33
10 | ACATTTGTTGATACACCCATAAATTGATAATTACACCCATAAATTGATAATTATCACACCCATAAATTGATATTGCCTCTGATCATAGTCAGACCAACATTGCTACGACCCGTATTCGCACCGACAC | -0.116 ± 0.036 | -0.0387 ± 0.31
11 | ACATTTGTTGATACACCCATAAATTGATAATTACACCCATAAATTGATAATTATCAGTGGGTATTTAACTATAACGCTCTGATCATAGTCAGACCAACATTGCTACGACCCGTATTCGCACCGACAC | -0.394 ± 0.0092 | 2.54 ± 0.063
12 | ACATTTGTTGATACACCCATAAATTGATAATTACACCCATAAATTGATATTGCTCACAACCATAAAATGATAATTACTCTGATCATAGTCAGACCAACATTGCTACGACCCGTATTCGCACCGACAC | -0.918 ± 0.33 | -0.204 ± 0.23
13 | ACATTTGTTGATACACCCATAAATTGATAATTACACCCATAAATTGATATTGCTCACAACCATAAAGTGATATTTACTCTGATCATAGTCAGACCAACATTGCTACGACCCGTATTCGCACCGACAC | -0.813 ± 0.18 | -0.114 ± 0.24
14 | ACATTTGTTGATACACCCATAAATTGATAATTACACCCATAAATTGATATTGCTCACAACCATAAGTTGATATTTTCTCTGATCATAGTCAGACCAACATTGCTACGACCCGTATTCGCACCGACAC | -0.802 ± 0.24 | 0.079 ± 0.1
15 | ACATTTGTTGATACACCCATAAATTGATAATTACACCCATAAATTGATATTGCTCACAACCATATATTGATATCTCCTCTGATCATAGTCAGACCAACATTGCTACGACCCGTATTCGCACCGACAC | -1.02 ± 0.26 | 0.128 ± 0.24
16 | ACATTTGTTGATACACCCATAAATTGATAATTACACCCATAAATTGATATTGCTCACACCCATAAATTGATAATTACTCTGATCATAGTCAGACCAACATTGCTACGACCCGTATTCGCACCGACAC | -0.735 ± 0.34 | 0.319 ± 0.23
17 | ACATTTGTTGATACACCCATAAATTGATAATTACACCCATAAATTGATATTGCTCACACCCATAAATTGATATTGCCTCTGATCATAGTCAGACCAACATTGCTACGACCCGTATTCGCACCGACAC | -0.538 ± 0.15 | 0.393 ± 0.28
18 | ACATTTGTTGATACACCCATAAATTGATAATTACACCCATAAATTGATATTGCTCAGTGGGTATTTAACTATAACGCTCTGATCATAGTCAGACCAACATTGCTACGACCCGTATTCGCACCGACAC | -1.23 ± 0.25 | 2.63 ± 0.18

Row | Sequence | relative integration efficiency (log2) [1] | relative integration efficiency (log2) [2]
19 | ACATTTGTTGATACACCCATAAATTGATATTGCCAACCATAAAATGATAATTATCACAACCATAAAATGATAATTACTCTGATCATAGTCAGACCAACATTGCTACGACCCGTATTCGCACCGACAC | -0.123 ± 0.11 | -0.058 ± 0.3
20 | ACATTTGTTGATACACCCATAAATTGATATTGCCAACCATAAAATGATAATTATCACAACCATAAAGTGATATTTACTCTGATCATAGTCAGACCAACATTGCTACGACCCGTATTCGCACCGACAC | -0.59 ± 0.12 | -0.327 ± 0.1
21 | ACATTTGTTGATACACCCATAAATTGATATTGCCAACCATAAAATGATAATTATCACAACCATAAGTTGATATTTTCTCTGATCATAGTCAGACCAACATTGCTACGACCCGTATTCGCACCGACAC | -0.46 ± 0.23 | -0.175 ± 0.71
22 | ACATTTGTTGATACACCCATAAATTGATATTGCCAACCATAAAATGATAATTATCACAACCATATATTGATATCTCCTCTGATCATAGTCAGACCAACATTGCTACGACCCGTATTCGCACCGACAC | -0.961 ± 0.18 | -0.207 ± 0.002
23 | ACATTTGTTGATACACCCATAAATTGATATTGCCAACCATAAAATGATAATTATCACACCCATAAATTGATAATTACTCTGATCATAGTCAGACCAACATTGCTACGACCCGTATTCGCACCGACAC | -0.642 ± 0.2 | -0.568 ± 0.82
24 | ACATTTGTTGATACACCCATAAATTGATATTGCCAACCATAAAATGATAATTATCACACCCATAAATTGATATTGCCTCTGATCATAGTCAGACCAACATTGCTACGACCCGTATTCGCACCGACAC | -0.863 ± 0.071 | -0.203 ± 0.43
25 | ACATTTGTTGATACACCCATAAATTGATATTGCCAACCATAAAATGATAATTATCAGTGGGTATTTAACTATAACGCTCTGATCATAGTCAGACCAACATTGCTACGACCCGTATTCGCACCGACAC | -1.21 ± 0.35 | 2.28 ± 0.096
26 | ACATTTGTTGATACACCCATAAATTGATATTGCCAACCATAAAGTGATATTTATCACAACCATAAAATGATAATTACTCTGATCATAGTCAGACCAACATTGCTACGACCCGTATTCGCACCGACAC | -0.499 ± 0.21 | -0.362 ± 0.13
27 | ACATTTGTTGATACACCCATAAATTGATATTGCCAACCATAAAGTGATATTTATCACAACCATAAAGTGATATTTACTCTGATCATAGTCAGACCAACATTGCTACGACCCGTATTCGCACCGACAC | -0.684 ± 0.13 | -0.426 ± 0.4
28 | ACATTTGTTGATACACCCATAAATTGATATTGCCAACCATAAAGTGATATTTATCACAACCATAAGTTGATATTTTCTCTGATCATAGTCAGACCAACATTGCTACGACCCGTATTCGCACCGACAC | -0.617 ± 0.14 | -0.0145 ± 0.0084
29 | ACATTTGTTGATACACCCATAAATTGATATTGCCAACCATAAAGTGATATTTATCACAACCATATATTGATATCTCCTCTGATCATAGTCAGACCAACATTGCTACGACCCGTATTCGCACCGACAC | -0.78 ± 0.17 | 0.117 ± 0.34
30 | ACATTTGTTGATACACCCATAAATTGATATTGCCAACCATAAAGTGATATTTATCACACCCATAAATTGATAATTACTCTGATCATAGTCAGACCAACATTGCTACGACCCGTATTCGCACCGACAC | -0.649 ± 0.14 | -0.215 ± 0.15
31 | ACATTTGTTGATACACCCATAAATTGATATTGCCAACCATAAAGTGATATTTATCACACCCATAAATTGATATTGCCTCTGATCATAGTCAGACCAACATTGCTACGACCCGTATTCGCACCGACAC | -0.74 ± 0.11 | -0.415 ± 0.17
32 | ACATTTGTTGATACACCCATAAATTGATATTGCCAACCATAAAGTGATATTTATCAGTGGGTATTTAACTATAACGCTCTGATCATAGTCAGACCAACATTGCTACGACCCGTATTCGCACCGACAC | -1.12 ± 0.16 | 2.341 ± 0.0029
33 | ACATTTGTTGATACACCCATAAATTGATATTGCCAACCATAAGTTGATATTTTTCACAACCATAAAATGATAATTACTCTGATCATAGTCAGACCAACATTGCTACGACCCGTATTCGCACCGACAC | -0.413 ± 0.23 | -0.0638 ± 0.3
34 | ACATTTGTTGATACACCCATAAATTGATATTGCCAACCATAAGTTGATATTTTTCACAACCATAAAGTGATATTTACTCTGATCATAGTCAGACCAACATTGCTACGACCCGTATTCGCACCGACAC | -0.583 ± 0.25 | -0.457 ± 0.31
35 | ACATTTGTTGATACACCCATAAATTGATATTGCCAACCATAAGTTGATATTTTTCACAACCATAAGTTGATATTTTCTCTGATCATAGTCAGACCAACATTGCTACGACCCGTATTCGCACCGACAC | -0.695 ± 0.095 | -0.197 ± 0.3
